Publication PMC4739766 (eLife, 2015)

Experiments:
RhoA (Homo sapiens) = RhoA (Homo sapiens) (UniProt P61586); details: cited from earlier work
[1] = target: human p75^NTR death domain (330–427) (human) (UniProt P08138); assay: SPR; p75NTR DD-His captured on NTA sensor chip via Ni2+; BIAcore T200, 22°C; 10 mM HEPES, 50 mM NaCl, 0.005% Surfactant P20, 0.02% BSA, pH 7.0; kinetic analysis, one binding site model
[2] = target: T1, human p75^NTR death domain (330–427) (human), P08138; assay: dynamic light scattering; p75NTR DD ~0.2 mM in phosphate buffer, pH 7.0, 22°C; apparent hydrodynamic radius; details: remark: other sources report otherwise
T1 chain: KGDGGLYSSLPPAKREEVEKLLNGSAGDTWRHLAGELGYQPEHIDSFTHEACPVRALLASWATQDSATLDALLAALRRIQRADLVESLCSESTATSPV

human RhoGDI (2–204) = target: T2, human RhoGDI (2–204) (human, UniProt P52565 2-204); assay: SPR; p75NTR DD-His captured on NTA sensor chip via Ni2+; BIAcore T200, 22°C; 10 mM HEPES, 50 mM NaCl, 0.005% Surfactant P20, 0.02% BSA, pH 7.0; kinetic analysis, one binding site model; details: both partners purified
T2 construct: 15N- or 13C,15N-labelled in some NMR samples; source: E. coli SoluBL21 (DE3), purified (Ni-NTA, gel filtration Superdex 75 and/or ion exchange)
T2 sequence (looked up): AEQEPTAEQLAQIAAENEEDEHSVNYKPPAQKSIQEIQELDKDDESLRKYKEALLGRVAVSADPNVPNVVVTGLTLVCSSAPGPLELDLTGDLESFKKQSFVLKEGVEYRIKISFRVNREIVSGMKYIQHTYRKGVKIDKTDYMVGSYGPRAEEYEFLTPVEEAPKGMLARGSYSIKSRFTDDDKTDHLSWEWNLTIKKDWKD

[3] = target: T3, human RIP2 CARD (434–539) (human, UniProt O43353 434-539); assay: as above; details: both partners purified
T3 construct: RIP2 kinase, human, caspase recruitment domain with C-terminal tail, residues 434-539; The results speak of a C-terminal tail Leu524-Met540 and of 107 amino acids, the methods of residues 434-539; also called RIP2 CARD (including C-terminal tail); source: E. coli SoluBL21 (DE3), purified (Ni-NTA, gel filtration Superdex 75 and/or ion exchange)

[4] = target: T4, p75^NTR DD tagged with EGFP(A206K) in its C-terminus (human); assay: FRET or BRET; homo-FRET fluorescence anisotropy of p75NTR DD-EGFP diluted serially in 50 mM phosphate buffer pH 7.0, room temperature; fit to a monomer-dimer equilibrium; apparent; dimer to monomers; details: remark: other sources report otherwise
T4 chain: T1 chain

T3 sequence (O43353 434-539): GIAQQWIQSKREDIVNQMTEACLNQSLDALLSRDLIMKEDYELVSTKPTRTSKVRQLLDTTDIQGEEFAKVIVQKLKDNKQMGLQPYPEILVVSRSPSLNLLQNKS
Sequence of RhoA (Homo sapiens) (P61586 1-190): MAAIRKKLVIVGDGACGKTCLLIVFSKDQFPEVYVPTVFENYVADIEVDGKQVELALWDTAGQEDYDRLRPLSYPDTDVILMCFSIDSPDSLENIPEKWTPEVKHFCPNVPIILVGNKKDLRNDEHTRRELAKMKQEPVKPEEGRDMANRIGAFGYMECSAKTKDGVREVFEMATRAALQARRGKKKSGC

Molecule: RhoGDI (from UniProt P52565)
- Kd (RhoA (Homo sapiens)): 170 nM

Molecule: RIP2 CARD ΔC mutant lacking the C-terminal tail (domain or fragment)
- Kd [1]: 58.7 nM

B1: human p75^NTR death domain (330–427), P08138 330-427 (domain or fragment)
chain: T1 chain
- stoichiometry N [2]: 2

B2: human p75^NTR death domain (330–427) (domain or fragment, UniProt P08138 330-427, looked up)
chain: T1 chain
notes: p75 neurotrophin receptor (NGFR, TNFRSF16), human, death domain, residues 330-427; 15N- or 13C,15N-labelled in some NMR samples; Monomer or dimer depending on the buffer; also called p75^NTR DD; DD; source: E. coli SoluBL21 (DE3), purified (Ni-NTA, gel filtration Superdex 75 and/or ion exchange)
- Kd (human RhoGDI (2–204)): 827 ± 338 nM
- koff (human RhoGDI (2–204)): 0.05 s⁻¹
- kon (human RhoGDI (2–204)): 60000 ± 10000 M⁻¹ s⁻¹
- Kd [3]: 4.67 ± 0.7 nM
- koff [3]: 0.00332 s⁻¹
- kon [3]: 720000 ± 340000 M⁻¹ s⁻¹

B3: p75^NTR DD tagged with EGFP(A206K) in its C-terminus (domain or fragment)
chain: T1 chain
modifications: here or on the partner: C-terminal EGFP(A206K) carrier left out; limits of this fusion are not given, so the paper's own DD construct (330-427) is used / C-terminal EGFP(A206K) carrier left out; limits of this fusion are n
- Kd [4]: 49000 nM
